Data: the supplement of paper PMC12636428

Test system: Saccharomyces cerevisiae
Assay: transcriptional activation domain activity (GFP:mCherry ratio, weighted mean of sorted bins, harmonized to initial dataset scale) (arbitrary fluorescence ratio units); higher = stronger transcriptional activation
Details: beta-estradiol 1 µM; induction time 4 h
Description: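 53-aa protein tiles (fungal proteins plus yeast TF control tiles) fused C-terminally to a DBD-estrogen-binding domain-mCherry synthetic TF, integrated in S. cerevisiae (URA3 locus) with a GFP reporter. Cells were induced with 1 uM beta-estradiol for 4 h at 30 C, FACS-sorted into 8 bins by GFP:mCherry ratio and barcodes sequenced. Activity is the read-weighted mean bin fluorescence (GFP:mCherry), averaged over barcodes (median 12); tiles under 50 reads were discarded. New active-learning values were harmonized by linear fit onto the scale of the initial (Hummel et al.) dataset. The assay saturates at low and high signal.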

Sequence	transcriptional activation domain activity
LRWVLLPLCLFFSVCLEAHWPSISLAIVIIAYNELHMSSHWFLRGFCYAWGNA	36800
EQPSAPAAAANSEEPDNKEAEKTETGAAAENKEAVANNGSESAEKEPAETSAS	23500
HYFLVIMVLGMIELLRFPETRDAGVSLIRELLAFKFAKTSWDVVICNQLEKYL	41300
AVPGEVTEAEADSDVKTDDAAAAPATDEAAKPKKKKKKFARKPRRKAAAPAEG	17100
AGAKQLAYPQKLALIQYSDHISLNILVGKGWQELNAELVCLFVILARNIFVML	45600
ICLALCTVLTTLTLGVSLYFGVVLVRSDFLWQVSFRDLTWSYFVAFGAQVIVD	41100
MAQVAVFLVHKVLYGIIPLFEIQTCAYFPLLVSLWHLNYMLFYVVMFMRLIIL	45300
MYRCYCGLLMVPWYPCAVVFHVCLCGVRWGCENGVIGVYVLGWWVLWFVVLFG	32600
RLIYGDYVSYHFLKMLHKVHDQISLAYIHHGLELVMWSCKVLVLLFKQLFESY	67900
MIIGMWLFCHVGSSFSVYHMFPLLYFRLLLCYLVFWSCFLLTFSKVSFSFLFA	54400
FVHVYLRKRISGFPPGYRVAGELIIWCGAVVALSFESILATDASGSGYRLSDP	58200
RSESGSPARRKKKRSSRDSEDSAGESSDSDAGARRKSRKGKDSRRDRKSKKDK	37600
GDAHAAPKGRKGGGKKRKAADEDGEEEGEAEKPAKKAGKRGKKGKATPTQEEG	12100
MVSFFFSLCFSSFSYLLFPHFLSFFLFFSLCCHFFPFVSTFPPILFFIMNVSF	67100
PMAVTLIERNVILGLRNAKTTDQLNTLINSLPFNNTSMLFLRLAMTKLSVIWS	59900
EAEVTATGEKSSPARVVVLRARAADAGKLVSIAEIAKREIEKGTGGQGGGSGG	18100
TSPKKKGRAAAKGKKGADKENAEAKTEVEKKASEDEFKDLEPNGDSKTNGAAA	< 6570

Sequence	transcriptional activation domain activity
MAGSFFFSFFFLSLFMLFHFLSLSFLIFFFLSSLSSFAFLLLLISPFGPPNPH	54400
MAEKRATSTAPGPSTSLQRGKACLRCRKRKMRCDGSKPACQQCVRAKKADGCE	21500
FSWVELCLSVTWWFFPACLLLSDTLVLVYLTPGLDVLVPFSMIFVYCFLGLPP	52300
RWCARCMLLTATLHMGYFFSAWAPYDYIGYQLKNNKIVWKGLAAWCTLVWIVF	93300
IHFFFFGGTYFFFFCQWGFGGFFFSFLTFIPFFSYIFHIFHYAVLWLWLWLWL	59800
SDDDEPPAKAAPKPKPRPVGKAKAKAREPEPESDGEVSAVQKKKKRKIGIFQS	37600
YLIIISFFSFSFYLLIHMQYINPKGHPPLKFYQLIIWRWCATMCAYFFLSLAY	62000
VPTVFMAIIQEFASFLYLYQMMCMWVWYYFQYYQMGLVQTIIILMAAFIRVFL	65400
EGEGEEEAVTLKKTKKGRGGEEEAAKKGKKKGDEEDPAWEEAAAKKGKKKGEE	37800
SIILLCLPAAYFLFNIFSVGLLSLGFSHRLIPGIPRLRRYIFVPGVFLYIFAR	54300
MLLICMSVWLCALSLCILRCRENFFVLMGDVFFFLASMWYGTVSQFVRRPLFH	48100
MGKKRCLERILFLFLYAILFHILLLLLPSFPFLYLYTFAFVFYFSLSIYLVSL	43600
LLVRLRKEYYLALFIFWRVGYNVLLGLMLRSQSDWNLLVRFAKRYGFGQNAGK	48800
MIVMNQPNYIFDEFAIIISVYISSISNLAFYFGYDFLVLLFLQNLLEFIIMCY	76800
HLLIKILATRFFLEAKKTTYAPLNDQGTLMPSVEWTIMAQLWRLARNKWFEAT	51000
PTAPNSSLPGCDVWDDIVTAAYYVNPCFNFYHLIDFCPYLWDELGFPSLAWGP	72200
EKGGRDKDKDGRPANAKPKSKPHGKTPKPQQQRDGKKSATLKENAAPAAPAAA	24800
